Measured values published in the nanobody polyreactivity screen of Harvey et al. (2022).

experiment: yeast display, Sf9 membrane polyspecificity reagent, FACS + sequencing; frameworks hold sequencing errors
Method in brief: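 Nanobodies from a synthetic yeast display library (Saccharomyces cerevisiae BJ5465), induced 36–48 hours with galactose, were stained 1 hour at 4 °C with 10% biotinylated, detergent-solubilized Sf9 membrane reagent, enriched on streptavidin microbeads, then FACS-sorted. Anti-HA (expression) and streptavidin (reagent binding) fluorescence set low and high (top ~1%) gates. Polyreactivity labels come from the gate of origin. Genes were colony-PCR amplified, MiSeq 2 × 250 sequenced and filtered by CDR length.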

Question: With “QVQHVESGGGLVQAGGSLRLSCAASGDIFRPNAMGWYRQAPGKERELVAAITRSGGTTYYADSVKGRFTISRDYAKNTVYLQMNSLNPEDTAVYYCAARGLQYYRYDYWGQGTQVTVSS” as the sequence, how does the “polyreactivity (PSR sort gate)” value read?
Answer: The value was “low polyreactivity”.

Question: With “QVQHVESGGGLVQAGGSLRLSCAASGFIFARNAMGWYRQAPGKERELVAAITWSGGSTYADSVKGRFTISRDNAKNTVYLQMNSLKPEDTAVYYCAADSYPAYLGFVGFDYWGQGTQVTVSS” as the sequence, how does the “polyreactivity (PSR sort gate)” value read?
Answer: Its value is “low polyreactivity”.

Question: Which “polyreactivity (PSR sort gate)” value does the source give for “QVQHVESGGGLVQAGGSLRLSCAASGFIFPTYAMGWYRQAPGKERELVATITTNAGGTHYADSVKGRFTISRDNAKNTVYLQMNSLKPEDTAVYYCAAKQYRPKQRKYWTRIYDYWGQGTQVTVSS” here?
Answer: Its value is “low polyreactivity”.

Question: For “QVQHVESGGGLVQAGGSLRLSCAASGFIFRRYAMGWYRQAPGKERELVAAISWRSGSTYYADSVKGRFTISRDNAKNTVYLQMNSLKPEDTAVYYCAAKDQATYQLNYWGQGTQVTVSS”, which “polyreactivity (PSR sort gate)” value is on record?
Answer: The value was “high polyreactivity”.

Question: For “QVQHVESGGGLVQAGGSLRLSCAASGFIFRRYPLGWYRQAPGKERELVASISSGGNTDYADSVKGRFTISRDNAKNTVYLQMKSLNPEDTAVYYCNARVRWYPGYDYWGQGTQVTVSS”, which “polyreactivity (PSR sort gate)” value is on record?
Answer: The value was “high polyreactivity”.

Question: With “QVQHVESGGGLVQAGGSLRLSCAASGFIFWYYTMGWYRQAPGKVRELLATISGGGSTYYADSVKGRFTISRDNAKNTVYLQMNSLKPEDTAVYYCNAVIRTRRVGYGDGVDYWGQGTQVTVSS” as the sequence, how does the “polyreactivity (PSR sort gate)” value read?
Answer: Its value is “high polyreactivity”.

Question: Which “polyreactivity (PSR sort gate)” value does the source give for “QVQHVESGGGLVQAGGSLRLSCAASGFTFAYYAKGWYRQAPGKERELVARISSGGSTYYADSVKGRFTISRDNAKNTVYLQMNSLKPEDTAVYYCAARSYYISPWRFDYWGQGTQVTVSS” here?
Answer: The value was “high polyreactivity”.

Question: For “QVQHVESGGGLVQAGGSLRLSCAASGFTFSYNAMGWNRQAPGKERELVAAISATGDGNTYYADSVKGRFTISRDNAKNTVYLQMNSLNPEDTAVYFCNRLPQYALPYRHNGYWGQGTQVTVSS”, which “polyreactivity (PSR sort gate)” value is on record?
Answer: The value was “low polyreactivity”.

Question: Which “polyreactivity (PSR sort gate)” value does the source give for “QVQHVESGGGLVQAGGSLRLSCAASGFTFWYYDMGWSRQAPGKERELVAAITNGGRTYYADSVKGRFTISRDNAKNTVYLQMNSLKPEDTAVYYCAAGRWRSGRAEDYWGQGTQVTVSS” here?
Answer: The value was “high polyreactivity”.

Question: With “QVQHVESGGGLVQAGGSLRLSCAASGFTIPNYAMGLYRQAPGKERELVAAITSGGGRTNYADSVKGRFTISRDNAKNTVDLQMNSLKPEDTAVYDCAKTRLRGSEFGFWGQGTQVTVSS” as the sequence, how does the “polyreactivity (PSR sort gate)” value read?
Answer: Its value is “low polyreactivity”.

Question: With “QVQHVESGGGLVQAGGSLRLSCAASGGIFERKDMGWYRQAHGKERQLVAGISSVGSTNYADSVKWRFTISRDNAKNTVYLQMNSLKPEDTAVYYCAAKRVRALYVGSEGGYWGQGTQVTVSS” as the sequence, how does the “polyreactivity (PSR sort gate)” value read?
Answer: Its value is “low polyreactivity”.

Question: With “QVQHVESGGGLVQAGGSLRLSCAASGGIYYQNAMGWYRQAPGKERELVAAISGRGGRTYYADSVKGRFTISRDNAKNTVYLQMNSLKPEDTAVYYCNADQATFSLYHEMDYWGQGTQVTVSS” as the sequence, how does the “polyreactivity (PSR sort gate)” value read?
Answer: Its value is “low polyreactivity”.

Question: For “QVQHVESGGGLVQAGGSLRLSCAASGGTFADYTMGWYRQAPGKERELVAAITSSGGSTYYADSVKGRFTISRDNAKNTVYLQMNSLKTEDTAVYYCAALGYVAMGYWGQGTQVTVSS”, which “polyreactivity (PSR sort gate)” value is on record?
Answer: Its value is “high polyreactivity”.

Question: For “QVQHVESGGGLVQAGGSLRLSCAASGIIFPYNAMGWYRQAPGKERELVAAITGGGSTYYADSVKGRFTISRDNAKNTVYLQMNSLKPEDTAVYYCAADRSGPGYDYWGQGTQVTVSS”, which “polyreactivity (PSR sort gate)” value is on record?
Answer: The value was “low polyreactivity”.

Question: With “QVQHVESGGGLVQAGGSLRLSCAASGIIFRDYGMGWYRQAPGKEREFVATITYSGGGTYYADSVKGRFTISRDNAKNTVYLQMNSLKPEDTAVYYCAAYPFYYDLAYDYWGQGTQVTVSS” as the sequence, how does the “polyreactivity (PSR sort gate)” value read?
Answer: Its value is “low polyreactivity”.

Question: For “QVQHVESGGGLVQAGGSLRLSCAASGITFWSNAKGWYRQAPGKEREMVAAITSSGGSTYYADSVKGRFTISRDNAKNTVYLHMNSLKPEDTAVYYCAAPISSSAGWDSYDYWGQGTQVTVSS”, which “polyreactivity (PSR sort gate)” value is on record?
Answer: Its value is “low polyreactivity”.

Question: For “QVQHVESGGGLVQAGGSLRLSCAASGLNFTRYVMGWYRQAPGKERELVAVISSGGSTYYADSVKGRFTISRDNAKNTVYLQMNSLKPEDTAVYYCAAYLRYSQVTYDYWGQGTQVTVSS”, which “polyreactivity (PSR sort gate)” value is on record?
Answer: The value was “high polyreactivity”.

Question: Which “polyreactivity (PSR sort gate)” value does the source give for “QVQHVESGGGLVQAGGSLRLSCAASGLTSVINAMGWYRQAPGKERELVAAMTNGGSTSYADSVKGRFTISRDNAKNPVYLQMNSLKPEDTAVYYWAADIVSSTDYPFDYWGQGTQVTVSS” here?
Answer: Its value is “low polyreactivity”.

Question: With “QVQHVESGGGLVQAGGSLRLSCAASGNIFGLNAMGWYRQAPGKERELVAAISKSGGSTFYADSVKGRFTISRDNAKNTVYLQMNSLKPEDTAVYYCAADHRYHWAYPRGYYYWGQGTQVTVSS” as the sequence, how does the “polyreactivity (PSR sort gate)” value read?
Answer: Its value is “high polyreactivity”.

Question: For “QVQHVESGGGLVQAGGSLRLSCAASGNIIPYNAKAWYRQAPGKERELVATISSGGSTYYADSVKGRFTISRDNAKNTVYLQMNSLKPEDTAVYYCAARGRYPYLYGYWGQGTQVTVSS”, which “polyreactivity (PSR sort gate)” value is on record?
Answer: The value was “high polyreactivity”.

Question: For “QVQHVESGGGLVQAGGSLRLSCAASGRIFAYNAMGWYRQAPGKERELVADISSGGNTYYADSVKGRFTISRDNAKNTVYLQMNSLKPEDTAVYYCAADIALYTHYHRIFDYWGQGTQVTVSS”, which “polyreactivity (PSR sort gate)” value is on record?
Answer: Its value is “low polyreactivity”.

Question: With “QVQHVESGGGLVQAGGSLRLSCAASGRIFPAYAMGWYRQATGKERELVATISSTGSRSYYADSVKGRFTISRDNAKNTVYLQMNSLKPEDTAVYYCAARQRYKVGGLYGVDYWGQGTQVTVSS” as the sequence, how does the “polyreactivity (PSR sort gate)” value read?
Answer: Its value is “high polyreactivity”.

Question: With “QVQHVESGGGLVQAGGSLRLSCAASGRIFSGYAMGWYRQAPGKERELVAAINRSGGSTYYADSVKGRFTISRDNAKNTVYLQMNSLKPDDTAVYYCAADKSDVYGYFRQSESYGYWGQGTQVTVSS” as the sequence, how does the “polyreactivity (PSR sort gate)” value read?
Answer: The value was “low polyreactivity”.

Question: With “QVQHVESGGGLVQAGGSLRLSCAASGRIFTTYAMGWYIQAPGKERELVAAISRSGGSTYYADSVKGRFTISRDNAKNTVYLQMNSLKPEDTAVYYCAAVPTSNSFRSSFYYWGQGTQVTVSS” as the sequence, how does the “polyreactivity (PSR sort gate)” value read?
Answer: Its value is “high polyreactivity”.

Question: Which “polyreactivity (PSR sort gate)” value does the source give for “QVQHVESGGGLVQAGGSLRLSCAASGRIFYFNAMGWYRPAPGKERELVAAISSSSGSTNYADSVQGRFTISRDNAKNTVYLQMNSLKPEATAVYYCAADGYYQDYTFEYDYWGQGTQVTVSS” here?
Answer: Its value is “low polyreactivity”.

Question: Which “polyreactivity (PSR sort gate)” value does the source give for “QVQHVESGGGLVQAGGSLRLSCAASGRIFYNYAMGWYRQAPGKEREFVADIDFNGGSTYYADSGKGRFTISRDNAKTTVYLQMNSLKPDDTAVYYSAAEQDDARYNAWWIGPMYSWGQGTQVTVSS” here?
Answer: The value was “low polyreactivity”.

Question: For “QVQHVESGGGLVQAGGSLRLSCAASGRIFYSNVMGWYRQAPGKERELVAAISGRTGGTYYADSEKGRFTISRDNAKNTVYLQMNSMKPEDTAVYFCAARVIYYYGSGPYDYWGQGTQVTVSS”, which “polyreactivity (PSR sort gate)” value is on record?
Answer: Its value is “low polyreactivity”.

Question: For “QVQHVESGGGLVQAGGSLRLSCAASGRIISYNAMGWYRQAPGKERELVAAISWGGGSTYYADSVKGRFTISRDNAKNTVYLQMNSLKPEDTAVYYCAKGWYRIKRNDYWGQGTQVTVSS”, which “polyreactivity (PSR sort gate)” value is on record?
Answer: Its value is “low polyreactivity”.

Question: For “QVQHVESGGGLVQAGGSLRLSCAASGRTFDWNAMGWYRQAPGKERELVAAITYSGGGTYYADSVKGRFTISRDNAKNTVYLQMNSLKPEETAVYYCAAGYPGTWSYYYWGQGTQVTVSS”, which “polyreactivity (PSR sort gate)” value is on record?
Answer: Its value is “low polyreactivity”.

Question: For “QVQHVESGGGLVQAGGSLRLSCAASGRTFHQNAMGWYRQAPGKERELVATITAGSGSTYYADSVKGRFTISGDNAKNTVYLQMNSVKPEDTAVYFWNAKWTLYQSDYWYYIYDYCGQGTQVTVSS”, which “polyreactivity (PSR sort gate)” value is on record?
Answer: The value was “low polyreactivity”.
